Data on 13 sequences can be found in publication PMC7957560.

The subject of the data set is viral hemagglutinin on virions (vHA) (Influenza A virus A/chicken/Kurgan/3654at/2005 (H5N1)). The data set is described as follows: BLI. To be noted: BLI at 30 C in sodium-potassium phosphate buffer pH 7.4 ([…].
Broadly, the Kd is the constant that tells how readily two partners part at equilibrium. The low end stands for tighter binding, the high end for weaker binding. The sequence GGGTGGGTGGGTGGG [G7nt-T_T_T] gave a Kd of 0.6 nM.

Take GGGTGGGAGGGCGGG [G7nt-T_A_C]: the Kd came to 0.3 nM.

For the sequence GGGTTATTTTGGGAGGGCGGG [G7nt], the Kd was found to be 0.13 nM.

Take GGGTGGGTGGGAGGG [G7nt-T_T_A]: the Kd is 0.7 nM.

TTGGGGTTAGGGAGGGCGGGGGTT [G7-TTA_A_C] came in with a Kd of 0.04 nM.

In the case of GGGTTATTTTGGGAGGGCGGGGGTT [G7n5t], the Kd turned out to be 0.04 nM.

Turning to TTGGGGTTATTTTGGGAGGGCGGG [G7n3t], the Kd was found to be 0.16 nM. Compared with the last sequence, the Kd is about 4-fold higher.

In turn, GGGAGGGAGGGAGGG [G7nt-A_A_A] displayed a Kd of 0.2 nM.

Take GGGTGGGAGGGTGGG [G7nt-T_A_T]: the dissociation constant Kd amounted to 0.07 nM.

Take GGGAGGGAGGGCGGG [G7nt-A_A_C]: the Kd is 0.3 nM.

TTGGGGTTATTTTGGGAGGGCGGGGGTT [RHA0385] registered a Kd of 0.05 nM.

GGGAGGGTGGGTGGG [G7nt-A_T_T] came in with a Kd of 0.2 nM. This Kd is about 4-fold higher than that of the sequence before.

As to “TTGGGGTTATTAAGGGAGGGCGGGGGTT [G7-TTATTAA_A_C]”, the dissociation constant (Kd) came out at 0.09 nM.
